Measured values: the supplement of paper PMC7877785
± gives the uncertainty stated by the source.

Test: self-splicing fitness, log relative to wild type (ln ratio); higher = more splicing; Tetrahymena group I intron in knt gene, E. coli kanamycin selection, DiMSum; sequences stand for … in CUCUCU…GGAGGGAAAAGUUAUCAGGCAUGCACCUGGUAGCUAGUCUUUAAACCAAUAGAUUGCAUCGGUUUAAAAGGCAAGACCGUCAAAUUGCGGGAAAGGGGUCAACAGCCGUUCAGUACCAAGUCUCAGGGGAAACUUUGAGAUGGCCUUGCAAAGGGUAUGGUAAUAAGCUGACGGACAUGGUCCUAACCACGCAGCCAAGUCCUAAGUCAACAGAUCUUCUGUUGAUAUGGAUGCAGUUCACAGACUAAAUGUCGGUCGGGGAAGAUGUAUUCUUCUCAUAAGAUAUAGUCGGACCUCUCCUUAAUGGGAGCUAGCGGAUGAAGUGAUGCAACACUGGAGCCGCUGGGAACUAAUUUGUAUGCGAAAGUAUAUUGAUUAGUUUUGGAGUACUCGUGGUCG
How it was run: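 Fitness was computed with DiMSum as the error-weighted combination of replicate fold changes, kanamycin versus none, each normalised to wild type. The library randomised all eight intron nucleotides of the P1ex region, with the intron placed in the knt kanamycin-resistance gene on pET-22b(+) in E. coli BL21(DE3). Six replicate transformations were grown overnight at 37°C or 30°C on LB agar with or without 25 μg/mL kanamycin, plus 100 μg/mL carbenicillin, 50 μM IPTG and 0.2% rhamnose. Pooled colonies were amplicon-sequenced on an Illumina HiSeq 2500.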

Sequence | self-splicing fitness (ln) (30 °C) | self-splicing fitness (ln) (37 °C)
AAUUAGCAAUAUUACGGUAA | -2.72 ± 0.2 | -0.655 ± 0.22
UAACAGCAAUAUUACGGGAC | -4.36 ± 0.17 | -1.89 ± 0.13
GGCGAGCAAUAUUACGUACC | -1.44 ± 0.25 | –
AUGUAGCAAUAUUACGAUUC | -2.52 ± 0.31 | -1.12 ± 0.33
ACCUAGCAAUAUUACGGUAA | -2.62 ± 0.13 | -1.89 ± 0.13
UGGAAGCAAUAUUACGAGGU | -2.77 ± 0.42 | -2.08 ± 0.4
CGGCAGCAAUAUUACGAUUA | -2.86 ± 0.22 | -2.17 ± 0.2
CAGUAGCAAUAUUACGAAUA | -4.27 ± 0.43 | -1.71 ± 0.2
UUACAGCAAUAUUACGUGGG | -2.85 ± 0.11 | -2.43 ± 0.13
AAGAAGCAAUAUUACGUAAG | -1.37 ± 0.069 | -0.942 ± 0.083
ACGAAGCAAUAUUACGCUGC | -3.95 ± 0.25 | -1.35 ± 0.18
AUUCAGCAAUAUUACGUUAU | -1.22 ± 0.079 | 0.0898 ± 0.095
AUCUAGCAAUAUUACGGACG | -0.422 ± 0.07 | 0.212 ± 0.094
UUCGAGCAAUAUUACGACCA | -2.28 ± 0.43 | -1.33 ± 0.28
GUGGAGCAAUAUUACGAUUU | -1.07 ± 0.27 | -1.29 ± 0.29
AGGUAGCAAUAUUACGUUCG | -0.889 ± 0.014 | -0.42 ± 0.034
GGACAGCAAUAUUACGCCGU | -4.23 ± 0.46 | -3.05 ± 0.26
CACCAGCAAUAUUACGACCA | -1.94 ± 0.13 | -0.0102 ± 0.16
CACGAGCAAUAUUACGACUG | -2.46 ± 0.1 | -0.773 ± 0.12
GAUCAGCAAUAUUACGAGAC | -3.07 ± 0.44 | -1.86 ± 0.13
CAUGAGCAAUAUUACGGGUA | -2.86 ± 0.28 | -2.23 ± 0.28
UGUUAGCAAUAUUACGUCUA | -0.124 ± 0.072 | -0.175 ± 0.071
GAGAAGCAAUAUUACGACCC | -1.83 ± 0.38 | –
GCUAAGCAAUAUUACGUAGU | -4.17 ± 0.31 | -2.32 ± 0.19
UCAGAGCAAUAUUACGUCAG | -2.84 ± 0.3 | -2.41 ± 0.29

Sequence | self-splicing fitness (ln) (30 °C) | self-splicing fitness (ln) (37 °C)
AGAGAGCAAUAUUACGCAUG | -3.23 ± 0.22 | -1.9 ± 0.35
CGCAAGCAAUAUUACGCGAG | -3.98 ± 0.31 | -2.43 ± 0.3
GAGAAGCAAUAUUACGCGAU | -2.81 ± 0.27 | -2.48 ± 0.33
AACGAGCAAUAUUACGCCUA | -3.36 ± 0.41 | -1.08 ± 0.3
UCAUAGCAAUAUUACGCGCU | -3.22 ± 0.42 | –
AUAGAGCAAUAUUACGGGAG | -4.25 ± 0.24 | -2.26 ± 0.22
UUGCAGCAAUAUUACGGUGU | -4.16 ± 0.21 | -2.72 ± 0.18
GCGGAGCAAUAUUACGGCUA | – | -1.81 ± 0.39
GAAUAGCAAUAUUACGGACG | -1.84 ± 0.16 | -0.471 ± 0.22
AGGUAGCAAUAUUACGACAC | -0.582 ± 0.018 | -0.427 ± 0.036
AAAGAGCAAUAUUACGACAG | -3.56 ± 0.3 | -2.86 ± 0.36
GUUUAGCAAUAUUACGUGCU | -2.18 ± 0.16 | -1.31 ± 0.17
UAACAGCAAUAUUACGGCGC | -2.5 ± 0.13 | -1.44 ± 0.13
GAUAAGCAAUAUUACGGUGA | -1.61 ± 0.093 | -1.1 ± 0.12
AUAUAGCAAUAUUACGUGAG | -1.81 ± 0.063 | -0.565 ± 0.096
CUACAGCAAUAUUACGAGAC | -4.15 ± 0.2 | -2.59 ± 0.16
GGCGAGCAAUAUUACGAACG | -1.57 ± 0.078 | 0.152 ± 0.091
CGAUAGCAAUAUUACGGCCG | -0.641 ± 0.087 | -0.184 ± 0.15
CGUGAGCAAUAUUACGCAUC | -1.85 ± 0.48 | -2.43 ± 0.35
GCCAAGCAAUAUUACGAAGC | -2.7 ± 0.12 | -2.51 ± 0.17
GUUUAGCAAUAUUACGCGUU | -1.75 ± 0.16 | -0.943 ± 0.2
UAUUAGCAAUAUUACGAUCU | -0.883 ± 0.12 | 0.167 ± 0.17
AAAGAGCAAUAUUACGCCUG | -2.57 ± 0.28 | -1.76 ± 0.33
UCCCAGCAAUAUUACGACUU | -3.04 ± 0.17 | -1.79 ± 0.14
UUUGAGCAAUAUUACGAGCA | – | -1.53 ± 0.43

Sequence | self-splicing fitness (ln) (30 °C) | self-splicing fitness (ln) (37 °C)
ACAUAGCAAUAUUACGCUCC | -1.62 ± 0.17 | -2.05 ± 0.23
AUUGAGCAAUAUUACGUUAU | -2.61 ± 0.2 | -1.86 ± 0.24
AUUGAGCAAUAUUACGUAAC | -1.3 ± 0.3 | -1.53 ± 0.31
AAAUAGCAAUAUUACGGCCC | -0.752 ± 0.16 | -0.254 ± 0.22
AGGAAGCAAUAUUACGUCGG | -2.61 ± 0.15 | -1.13 ± 0.15
AAAUAGCAAUAUUACGCAUU | -2.89 ± 0.14 | -1.52 ± 0.12
AGGUAGCAAUAUUACGGGGA | -3.342 ± 0.031 | -2.42 ± 0.039
CGUCAGCAAUAUUACGACGG | -0.836 ± 0.081 | -0.516 ± 0.12
GUCCAGCAAUAUUACGACCA | -0.7 ± 0.21 | -0.517 ± 0.17
AGCUAGCAAUAUUACGACUU | -0.59 ± 0.11 | -0.0618 ± 0.12
CAACAGCAAUAUUACGGCAU | -3.38 ± 0.12 | -1.11 ± 0.09
UUAAAGCAAUAUUACGCAGA | -0.209 ± 0.11 | -0.133 ± 0.13
UGGAAGCAAUAUUACGACCA | -0.871 ± 0.18 | -0.92 ± 0.21
CAUAAGCAAUAUUACGGAGC | -3.94 ± 0.29 | -3.35 ± 0.22
GUGAAGCAAUAUUACGCCAC | -2.66 ± 0.5 | –
CUAUAGCAAUAUUACGAUUG | -0.58 ± 0.097 | 0.313 ± 0.13
AGUGAGCAAUAUUACGCGGG | – | -2.1 ± 0.37
UAUCAGCAAUAUUACGCACA | -0.305 ± 0.087 | 0.32 ± 0.14
UAGUAGCAAUAUUACGAACC | – | -2.97 ± 0.33
CAUAAGCAAUAUUACGGCUG | -0.37 ± 0.082 | 0.0915 ± 0.12
CCGAAGCAAUAUUACGUAAG | -0.257 ± 0.055 | 0.2 ± 0.073
CGCAAGCAAUAUUACGAUGU | -1.6 ± 0.075 | -0.734 ± 0.1
AGCCAGCAAUAUUACGACAU | -1.512 ± 0.012 | -0.664 ± 0.032
CUUAAGCAAUAUUACGAUCC | -3.31 ± 0.44 | –
CUGCAGCAAUAUUACGGGCU | -4.01 ± 0.17 | -1.81 ± 0.17

Sequence | self-splicing fitness (ln) (30 °C) | self-splicing fitness (ln) (37 °C)
CUUGAGCAAUAUUACGCGCG | -3.32 ± 0.29 | -1.63 ± 0.25
CUUAAGCAAUAUUACGGAAG | -2.03 ± 0.17 | -0.419 ± 0.14
CUAGAGCAAUAUUACGGACG | 0.0877 ± 0.07 | 0.427 ± 0.097
CUAGAGCAAUAUUACGACGU | -3.28 ± 0.3 | -0.837 ± 0.26
UUCAAGCAAUAUUACGUAUC | -4.16 ± 0.24 | -1.85 ± 0.16
GUUAAGCAAUAUUACGUCUU | -0.682 ± 0.09 | -0.56 ± 0.11
CUUAAGCAAUAUUACGGCCC | -2.8 ± 0.4 | –
AUUGAGCAAUAUUACGUUGG | -3.62 ± 0.36 | -0.682 ± 0.17
AGCUAGCAAUAUUACGUGGC | – | -2.27 ± 0.26
CCGGAGCAAUAUUACGGAAC | -3.29 ± 0.47 | -1.67 ± 0.36
UCCAAGCAAUAUUACGAUUU | -3.72 ± 0.26 | -2.71 ± 0.28
UGACAGCAAUAUUACGAUCG | 0.0362 ± 0.077 | 0.761 ± 0.1
ACAAAGCAAUAUUACGAAGU | -2.04 ± 0.12 | -2.06 ± 0.18
GGAAAGCAAUAUUACGCGCA | -0.291 ± 0.16 | -0.139 ± 0.17
UCAGAGCAAUAUUACGCCCA | -2.06 ± 0.44 | –
CGAAAGCAAUAUUACGAGUC | -2.98 ± 0.18 | -2.22 ± 0.35
AUGAAGCAAUAUUACGCGGU | -2.88 ± 0.24 | -1.71 ± 0.2
CAAAAGCAAUAUUACGUGGG | -3.26 ± 0.12 | -2.6 ± 0.12
GUGUAGCAAUAUUACGAACG | -1.76 ± 0.16 | -0.988 ± 0.23
GCAUAGCAAUAUUACGUAUU | -3.09 ± 0.16 | -2.04 ± 0.17
UCAGAGCAAUAUUACGGGCC | -3.69 ± 0.44 | –
CAAUAGCAAUAUUACGCCCA | -1.6 ± 0.41 | –
GCGCAGCAAUAUUACGCGUG | -1.93 ± 0.11 | -1.36 ± 0.13
GAUGAGCAAUAUUACGGUGU | -3.67 ± 0.22 | -1.15 ± 0.13
